Measurements published in US7728193B2, “Phytochrome-interacting protein and a use thereof” (Genomine Inc., priority 2004, dated 2010).

Assays:
[1] = target: T1, phytochrome B (Arabidopsis thaliana, UniProt P14713); assay: In vitro binding assay (GST pull-down of 35S-labeled TnT protein); settings: 1 μg GST-PAPP5 fusion protein, 4° C.
T1 sequence (P14713 1-1172): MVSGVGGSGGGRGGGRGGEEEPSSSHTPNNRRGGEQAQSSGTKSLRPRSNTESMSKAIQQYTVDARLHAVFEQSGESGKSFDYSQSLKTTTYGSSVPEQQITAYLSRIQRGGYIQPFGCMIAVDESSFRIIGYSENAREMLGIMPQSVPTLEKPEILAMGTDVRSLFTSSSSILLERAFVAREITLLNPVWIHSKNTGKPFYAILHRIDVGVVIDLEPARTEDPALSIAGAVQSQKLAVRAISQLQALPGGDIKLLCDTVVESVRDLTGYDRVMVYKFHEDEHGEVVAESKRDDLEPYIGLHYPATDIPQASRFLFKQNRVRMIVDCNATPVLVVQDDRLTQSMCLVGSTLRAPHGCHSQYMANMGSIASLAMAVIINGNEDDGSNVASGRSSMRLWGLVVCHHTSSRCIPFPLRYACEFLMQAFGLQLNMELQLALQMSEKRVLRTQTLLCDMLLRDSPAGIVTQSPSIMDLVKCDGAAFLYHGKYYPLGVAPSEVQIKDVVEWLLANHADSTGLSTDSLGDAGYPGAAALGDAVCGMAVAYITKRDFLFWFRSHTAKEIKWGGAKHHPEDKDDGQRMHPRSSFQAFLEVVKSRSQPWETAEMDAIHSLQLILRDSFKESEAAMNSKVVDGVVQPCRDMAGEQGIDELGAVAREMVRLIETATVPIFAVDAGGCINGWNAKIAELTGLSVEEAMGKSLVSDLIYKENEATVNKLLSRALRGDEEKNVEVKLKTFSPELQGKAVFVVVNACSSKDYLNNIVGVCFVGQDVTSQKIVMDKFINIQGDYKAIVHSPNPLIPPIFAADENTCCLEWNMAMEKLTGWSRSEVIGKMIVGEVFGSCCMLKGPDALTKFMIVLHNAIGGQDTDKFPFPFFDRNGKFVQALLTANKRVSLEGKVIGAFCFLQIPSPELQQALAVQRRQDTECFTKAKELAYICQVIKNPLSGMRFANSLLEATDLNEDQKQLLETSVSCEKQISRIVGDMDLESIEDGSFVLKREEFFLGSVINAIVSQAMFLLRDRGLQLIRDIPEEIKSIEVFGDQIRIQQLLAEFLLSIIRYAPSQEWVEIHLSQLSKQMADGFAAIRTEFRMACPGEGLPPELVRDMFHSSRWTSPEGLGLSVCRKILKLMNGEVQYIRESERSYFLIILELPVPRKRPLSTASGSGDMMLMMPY
T1 sequence (Q84XU2 1-484 isoform Q84XU2-2 partner): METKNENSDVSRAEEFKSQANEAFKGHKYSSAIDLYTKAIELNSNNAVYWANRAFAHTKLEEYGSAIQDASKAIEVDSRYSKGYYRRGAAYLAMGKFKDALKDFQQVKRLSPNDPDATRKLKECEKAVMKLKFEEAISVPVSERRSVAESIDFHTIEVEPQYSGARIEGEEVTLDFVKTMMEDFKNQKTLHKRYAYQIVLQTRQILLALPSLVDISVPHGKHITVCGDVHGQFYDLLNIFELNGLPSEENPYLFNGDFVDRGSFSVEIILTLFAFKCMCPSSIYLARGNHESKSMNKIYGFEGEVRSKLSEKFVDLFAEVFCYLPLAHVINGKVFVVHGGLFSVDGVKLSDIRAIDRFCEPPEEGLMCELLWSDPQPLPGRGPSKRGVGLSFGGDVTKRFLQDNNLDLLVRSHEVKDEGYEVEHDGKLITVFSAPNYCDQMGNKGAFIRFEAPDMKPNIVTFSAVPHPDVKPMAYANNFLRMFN

[2] = tested on: autophosphorylated oat phytochrome A; assay: Dephosphorylation of autophosphorylated phytochrome by PAPP5 in vitro; assay type: biochemical; settings: Rc 664 nm or FRc 748 nm irradiation for 5 minutes
Method: First, KP buffer (20 mM Tris-HCl pH7.5, 30 mM MgCl2, 1 mM EDTA, 1 mM EGTA, 0.1% β-mercaptoethanol, 0.1% ethanol) containing 1 μg of purified oat phytochrome A (provided from Kumho Life and Environmental Science Laboratory, Korea) was set on ice and irradiated with Rc light output of 50 μmolS^−1m^−2 at 664 nm for 5 minutes. Then, the reaction solution was allowed to react with [γ-^32P]ATP in dark conditions for 30 minutes (autophosphorylation of phytochrome A). Following addition of 1 μg of each of the fusion proteins GST-PAPP5, GST-TPR and GST-PP2Ac prepared in Examples <4-1> and <5-1>, the reaction continued for more 30 minutes, and then stopped by adding 12 μl of 5× Tris-glycine SDS sample buffer under dim green safe light.
Next, the present inventors investigated whether the phosphatase activity of PAPP5 depends on a change in the spectroscopic structure (photoconversion) of phytochrome molecules (Pr⇄Pfr). KP buffer solution containing phytochrome was set on ice and irradiated with a Rc light output of 50 μmolS^−1m^−2 at 664 nm (conversion of phytochrome into Pfr form) or a FRc light output of 50 μmolS^−1m^−2 at 748 nm (conversion of phytochrome into […]) for 5 minutes. Then, the autophosphylation/dephosphorylation test of phytochrome was performed in the same manner as described above.

“PAPP5: type 5 serine/threonine protein phosphatase of Arabidopsis thaliana interacting with phytochromes, SEQ ID NO: 4” was tested. Which “binding to phytochrome B” value [1] did it give?
Its value is “has the property of binding”.

And the “dephosphorylation by PAPP5 according to the form of phytochrome (Pfr vs Pr)” value [2]?
Its value is “higher in Pfr phytochrome”.
